Data from patent US20200299380A1 (published 2020).
Where a chain is given by its changes, count along the chain named. Each block holds one binder with its values, some of them ahead of it.

Tests used:
MICA*001-BirA = biological target: T1, MICA*001-BirA (human, UniProt Q29983 24-297); experiment: SPR single cycle kinetics, monovalent mean KD at pH 7.4, antibody captured on Protein-G chip, MICA-BirA injected
T1 construct: also called MICA-BirA; MICA*01-BirA; not shown: BirA tag
T1 sequence: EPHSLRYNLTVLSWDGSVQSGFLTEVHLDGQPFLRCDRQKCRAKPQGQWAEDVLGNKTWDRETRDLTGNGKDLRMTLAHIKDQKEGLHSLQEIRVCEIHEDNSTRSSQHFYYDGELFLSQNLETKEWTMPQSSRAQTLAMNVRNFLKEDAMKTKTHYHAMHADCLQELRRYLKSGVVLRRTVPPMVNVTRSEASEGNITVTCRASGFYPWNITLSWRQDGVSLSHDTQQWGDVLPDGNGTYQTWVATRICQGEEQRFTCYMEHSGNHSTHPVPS
Experimental: For monovalent affinity measurement, chimeric anti-MICA antibodies were captured onto a Protein-G chip.
Affinities were determined using single cycle kinetics (SCK). SCK cycles were as follows: Successive 120s injections at 30 μl/min of 5 serial dilutions (0.01 to 100 nM) of MICA-His or MICA-BirA in ascending order (or of buffer for the blank injections to be subtracted during the analysis). After the last concentration is injected, complex is left to dissociate for 600s before regeneration by a 10s injection of appropriate regeneration buffer at 40 μl/min. After the regeneration, chip is left to stabilise for 60s in running buffer. Curves are fitted using Biacore T100 Evaluation software.

[1] = biological target: T2, MICA*001 expressed at the cell surface (human, UniProt Q29983 24-297); experiment: flow cytometry on C1R transfectant cells, 4-parameter logistic fit
T2 construct: the protein on cells also has its transmembrane and cytoplasmic parts (Genbank AAB41060); also called C1R-MICA*001; C1R-MICA*01
T2 sequence: T1 sequence
Experimental: (§1) The binding of antibodies obtained from the first, second and third immunization series (including CHG1-M-MIA-19E9, CHG1-M-MIA-9C10, CHG1-M-MIA-6E4, CHG1-M-MIA-20C6, CHG1-M-MIA-16A8, CHG1-M-MIA-12A10, CHG1-M-MIA-10A7, CHG1-M-MIA-18E8, CHG1-M-MIA-10F3, CHG1-M-MIA-15F9 and CHG1-M-MIA-14B4) were tested for binding to MICA-expressing CR1 transfectant cells C1R-MICA*001, C1R-MICA*004, C1R-MICA*007 and C1R-MICA*008 (Pr. A. Steinle, Eberhard-Karls University Tuebingen, Germany) described in Salih et al. (2003) Blood 102(4): […]. Binding was analyzed by flow cytometry.
(§2) Cells were harvested and stained in PBS 1×/BSA 0.2%/EDTA 2 mM buffer during 30 minutes at 4° C. using a dose-range of the anti-MICA mAbs. After two washes in staining buffer, cells were stained for 30 min at 4° C. with mouse anti-human IgG1-PE monoclonal antibodies (1/11). After two washes, stainings were acquired on a BD FACS Canto II and analyzed using the FlowJo software.
(§3) Antibodies CHG1-M-MIA-19E9, CHG1-M-MIA-9C10, CHG1-M-MIA-6E4, CHG1-M-MIA-20C6, CHG1-M-MIA-12A10, CHG1-M-MIA-10A7, CHG1-M-MIA-18E8, CHG1-M-MIA-10F3, and CHG1-M-MIA-15F9 bound to each of the C1R-MICA*001, C1R-MICA*004, C1R-MICA*007 and C1R-MICA*008 cells (see FIG. 1A for antibodies CHG1-M-MIA-19E9, CHG1-M-MIA-9C10, CHG1-M-MIA-6E4, CHG1-M-MIA-20C6, CHG1-M-MIA-12A10, CHG1-M-MIA-10F3, and FIG. 1B for antibodies, CHG1-M-MIA-18E8, CHG1-M-MIA-15F9, CHG1-M-MIA-10A7). […] EC50 values are shown in Table C in μg/ml (calculated using a 4-parameter logistic fit).

[2] = biological target: T3, MICA*008 expressed at the cell surface (human, UniProt Q29983 24-297); experiment: as above
T3 construct: also called C1R-MICA*008; C1R-MICA*08
T3 chain: T1 sequence with T24A, C36Y, K125E, M129V, K173E, G206S, W210R, T213I, S215T, Q251R
Experimental: as §1, §2, §3

[3] = biological target: T4, MICA*004 expressed at the cell surface (human, UniProt Q29983 24-297); experiment: as above
T4 construct: also called C1R-MICA*004; C1R-MICA*04
T4 chain: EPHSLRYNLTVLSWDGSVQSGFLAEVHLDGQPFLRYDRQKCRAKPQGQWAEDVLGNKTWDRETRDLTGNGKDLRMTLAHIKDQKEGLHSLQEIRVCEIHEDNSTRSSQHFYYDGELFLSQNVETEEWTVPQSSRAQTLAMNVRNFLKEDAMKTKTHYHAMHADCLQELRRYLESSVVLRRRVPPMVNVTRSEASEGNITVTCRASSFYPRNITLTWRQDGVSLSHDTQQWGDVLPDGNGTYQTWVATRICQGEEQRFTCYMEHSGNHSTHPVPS
Experimental: as §1, §2, §3

[4] = biological target: T5, MICA*007 expressed at the cell surface (human, UniProt Q29983 24-297); experiment: as above
T5 construct: also called C1R-MICA*007; C1R-MICA*07
T5 chain: T1 sequence with T24A, K125E
Experimental: as §1, §2, §3

[5] = biological target: T6, MICB-Fc (R&D Systems 1599-MB) (human, UniProt Q29980 23-298, limits assumed); experiment: SPR, antibody at 10 µg/ml injected over immobilized MICB-Fc
T6 construct: Bought; also called human MICB-Fc; not shown: Fc of the bought fusion protein
T6 sequence: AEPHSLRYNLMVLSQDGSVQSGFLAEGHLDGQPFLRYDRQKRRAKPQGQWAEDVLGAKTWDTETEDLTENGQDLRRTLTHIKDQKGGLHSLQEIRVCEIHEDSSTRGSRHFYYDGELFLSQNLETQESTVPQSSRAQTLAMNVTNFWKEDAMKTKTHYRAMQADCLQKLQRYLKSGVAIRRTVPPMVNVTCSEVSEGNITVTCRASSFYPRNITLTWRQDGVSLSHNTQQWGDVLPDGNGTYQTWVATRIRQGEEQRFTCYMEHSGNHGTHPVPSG
Experimental: (§4) For cross-binding study, the human ULBP-1-Fc (R&D systems*), MICB-Fc (*), ULBP-2-Fc (*) and ULBP-3-Fc (*) recombinant proteins were covalently immobilized respectively on the flow cell one to four of a CM5 sensorchip. Anti-MICA antibodies (at a constant concentration of 10 μg/ml) were injected for 2 minutes at a flow rate of 10 μl/min onto the four flow cells in parallel. After each cycle, Sensorchip was regenerated by a five second injection of appropriate regeneration buffer.

[6] = biological target: T7, human ULBP-3-Fc (R&D systems) (human, UniProt Q9BZM4 30-217, limits assumed); experiment: SPR, antibody injected over immobilized ULBP-3-Fc
T7 construct: Bought; not shown: Fc of the bought fusion protein
T7 sequence (looked up): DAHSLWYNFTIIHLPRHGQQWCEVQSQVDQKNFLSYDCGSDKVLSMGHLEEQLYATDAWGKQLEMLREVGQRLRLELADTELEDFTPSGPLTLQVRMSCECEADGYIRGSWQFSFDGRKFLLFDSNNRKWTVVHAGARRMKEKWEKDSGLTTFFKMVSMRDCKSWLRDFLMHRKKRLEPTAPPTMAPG
Experimental: as §4

[7] = biological target: T2, MICA*001 expressed at the cell surface; experiment: cell-based or functional assay
[8] = biological target: T8, human ULBP-1-Fc (R&D systems) (human, UniProt Q9BZM6 26-216, limits assumed); experiment: SPR, antibody injected over immobilized ULBP-1-Fc
T8 construct: Bought; not shown: Fc of the bought fusion protein
T8 sequence (looked up): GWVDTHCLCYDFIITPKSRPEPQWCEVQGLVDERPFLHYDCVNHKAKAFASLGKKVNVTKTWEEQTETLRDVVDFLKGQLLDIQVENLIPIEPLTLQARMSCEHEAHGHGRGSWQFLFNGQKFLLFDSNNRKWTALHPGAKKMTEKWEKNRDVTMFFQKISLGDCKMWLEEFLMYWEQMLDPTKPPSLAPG
Experimental: as §4

[9] = biological target: T9, human ULBP-2-Fc (R&D systems) (human, UniProt Q9BZM5 26-217, limits assumed); experiment: SPR, antibody injected over immobilized ULBP-2-Fc
T9 construct: Bought; not shown: Fc of the bought fusion protein
T9 sequence (looked up): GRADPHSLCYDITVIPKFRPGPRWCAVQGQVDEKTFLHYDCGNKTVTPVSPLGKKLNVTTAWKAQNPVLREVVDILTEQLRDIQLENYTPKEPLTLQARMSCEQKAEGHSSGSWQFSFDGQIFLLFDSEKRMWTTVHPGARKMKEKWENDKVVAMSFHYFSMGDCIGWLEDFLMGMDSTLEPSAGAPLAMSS
Experimental: as §4

B1: CHG1-M-MIA-10F3 (antibody, human IgG1, V domains shown)
VH: QVQLQQSAAELARPGASVKMSCKASGYTFTSYTMHWVKQRPGQGLEWIGYINPSSGYTEYNQKFKDKTTLTVDKSSTTSYMQLSSLTSDNSAVYYCARGGDWDVDWFVYWGQGTLVTVSA
VL: QIVLTQSPAIMSASPGEKVTITCSASSSISYMHWFQQKPGTSPKLWIYSTSKLASGVPARFSGSGSGTSHSLTISRMEAEDAATYYCQHRSTYPFTFGSGTKLEIK
notes: the VH entry ends with ASTK
Kd (MICA*001-BirA): 8.3 nM
EC50 [1]: 0.47 µg/mL
EC50 [2]: 0.26 µg/mL
EC50 [3]: 0.17 µg/mL
EC50 [4]: 0.94 µg/mL
binding result [5]: binds

B5: CHG1-M-MIA-18E8 (antibody, human IgG1, V domains shown)
VH: DVQLQESGPDLVNPSQSLSLICTVTGYSITSDYSWHWIRQFPGNKLEWMGNIHYSGRINYNPSLRSRISITRDTSKNQFFLQLISVTTEDTATYYCATRRTFGNFEDYWGQGTTLTVSS
VL: QIVLSQSPATLSVSPGEKVTMTCRSSSSVNYMHWYQQKPGSSPKPWIYATSTLASGVPARFSGSGSGTSYSLTISRVEAEDAATYYCQQWSSNPLTFGAGTKLELK
notes: the VH entry ends with ASTK
Kd (MICA*001-BirA): 54 nM
EC50 [1]: 0.5 µg/mL
EC50 [2]: 0.24 µg/mL
EC50 [3]: 0.15 µg/mL
EC50 [4]: 0.3 µg/mL
binding result [5]: binds

Now from value to binder:

Kd (MICA*001-BirA): 61 nM
EC50 [1]: 0.68 µg/mL
EC50 [2]: 0.79 µg/mL
EC50 [3]: 0.43 µg/mL
EC50 [4]: 1.81 µg/mL
binding result [5]: binds
B2: CHG1-M-MIA-15F9 (antibody, human IgG1, V domains shown)
VH: DVQLQESGPDLVKPSQSLSLTCTVTGYSITSGYSWHWIRQFPGNKLEWMGFIHYSGSTDYNPSLKSRISLTRDTSKNQFFLQLNSVSTEDTATYYCAKDYGHWYFDVWGAGTTVTVSS
VL: SIVMTQTPKFLLVSAGDRVTITCKASQSVSYDVAWYQQKPGQSPKLLIFYASNRYTGVPARFTGSGYGTDFTFTISTVQAEDLAVYFCQQDYSSLTFGAGTKLELK
notes: the VH entry ends with ASTK

binding result [6]: no binding (tested: 10 µg/ml)
EC50 [1]: 2.09 µg/mL
EC50 [2]: 0.13 µg/mL
EC50 [3]: 0.13 µg/mL
EC50 [4]: 2.83 µg/mL
CDC: EC50 of the increase in dead (7-AAD positive) Raji-MICA*01 cells with human complement [7]: 2 µg/mL
binding result [8]: no binding (tested: 10 µg/ml)
binding result [9]: no binding (tested: 10 µg/ml)
B3: CHG1-M-MIA-9C10 (antibody, human IgG1, V domains shown)
VH: QVQLQQPGAELVRPGTSVNLSCKASGYSFTRYWMNWVKQRPGQGLEWIGMIHPSDSETRLNQKFKDKATLTVDKSSSTAYMQLSSPTSEDSAVYYCGYGNFFYVMDYWGQGTSVTVSS
VL: DILLTQSPAILSVSPGERVSFSCRASQSIGTSIHWYQQRTNGSPRLLIKFASESISGIPSRFSGSGSGTDFTLNINSVESEDIADYYCQQSNFWPFTFGSGTKLEVK
notes: also called chimeric anti-MICA 9C10

binding result [6]: no binding (tested: 10 µg/ml)
binding result [8]: no binding (tested: 10 µg/ml)
binding result [9]: no binding (tested: 10 µg/ml)
B4: CHG1-M-MIA-19E9 (antibody, human IgG1, V domains shown)
VH: DVQLQESGPGLVKPSQSLSLTCTVTGYSITSDYAWNWIRQFPGNKLEWMGFVSYSGTTKYNPSLKSRISITRDTSENQFFLQLNSVTSEDTATYYCARGYGFDYWGQGTTLTVSS
VL: EIVLTQSPTTMAASPGEKITITCSATSSISSIYFHWYQQRPGFSPKLLIYRTSNLASGVPARFSGSGSGTSYSLTIGTMEAEDVATYYCQQGTTIPFTFGSGTKLEIK
notes: also called chimeric anti-MICA 19E9
